Experimental data reported in publication PMC12603276.

Biological target: MORC2 (UniProt Q9Y6X9)
Test: co-IP of Flag-rPGK1, immunoblot
Conditions: reference: WT Flag-rPGK1; sites S256

- binding against the reference: lost
Substance: PGK1 (from UniProt P00558) Flag-rPGK1 S256A
